# Patent US12269859B2, “Synthetic immune receptors and methods of use thereof” (Angeles Therapeutics, Inc., priority 2016, dated 2025)
# B1: 062717-Q04 (protein)
# chain: MALPVTALLLPLALLLHAARPLEGKPIPNPLLGLDSTGSGEDLKNVFPPEVAVFEPSKAEIAHTQKATLVCLATGFYPDHVELSWWVNGKEVHSGVCTDPQPLKEQPALNDSRYCLSSRLRVSATFWQNPRNHFRCQVQFYGLSENDEWTQDRAKPVTQIVSAEAWGRADCGITSASYHQGVLSATILYEILLGKATLYAVLVSALVLMAMVKRKDSRGRAKRSGSGATNFSLLKQAGDVEENPGPTSMALPVTALLLPLALLLHAARPQSALTQPASASGSPGQSVTISCTGTSSDVGGYNYVSWYQQHPGKAPKLMIYDVSNRPSGVSNRFSGSKSGNTASLTISGLQAEDEADYYCSSYTSSSTLYVFGTGTQLTVLGGGGSGGGGSGGGGSEVQLQQSGPGLVKPSQTLSLTCAISGDSMLSNSDTWNWIRQSPSRGLEWLGRTYHRSTWYDDYASSVRGRVSINVDTSKNQYSLQLNAVTPEDTGVYYCARVRLQDGNSWSDAFDVWGQGTMVTVSSTREQKLISEEDGSGIQNPDPAVYQLRDSKSSDKSVCLFTDFDSQTNVSQSKDSDVYITDKCVLDMRSMDFKSNSAVAWSNKSDFACANAFNNSIIPEDTFFPSSDVPCDVKLVEKSFETDTNLNFQNLSVIGFRILLLKVAGFNLLMTLRLWSSRAKRSGSGVKQTLNFDLLKLAGDVESNPGPSRGHMTEYKPTVRLATRDDVPRAVRTLAAAFADYPATRHTVDPDRHIERVTELQELFLTRVGLDIGKVWVADDGAAVAVWTTPESVEAGAVFAEIGPRMAELSGSRLAAQQQMEGLLAPHRPKEPAWFLATVGVSPDHQGKGLGSAVVLPGVEAAERAGVPAFLETSAPRNLPFYERLGFTVTADVEVPEGPRTWCMTRKPGA
# B2: 041216-G06 (protein)
# chain: MALPVTALLLPLALLLHAARPDEIVLTQSPGSLAVSPGERVTMSCKSSQSVFFSSSQKNYLAWYQQIPGQSPRLLIYWASTRESGVPDRFTGSGSGTDFTLTISSVQPEDLAIYYCHQYLSSRTFGQGTKLEIKRLEGKPIPNPLLGLDSTGSGEDLKNVFPPEVAVFEPSKAEIAHTQKATLVCLATGFYPDHVELSWWVNGKEVHSGVCTDPQPLKEQPALNDSRYCLSSRLRVSATFWQNPRNHFRCQVQFYGLSENDEWTQDRAKPVTQIVSAEAWGRADCGITSASYHQGVLSATILYEILLGKATLYAVLVSALVLMAMVKRKDSRGRAKRSGSGATNFSLLKQAGDVEENPGPTSMDWIWRILFLVGAATGAHSFEQVQLQQPGAEVVKPGASVKMSCKASGYTFTSYYIHWIKQTPGQGLEWVGVIYPGNDDISYNQKFQGKATLTADKSSTTAYMQLSSLTSEDSAVYYCAREVRLRYFDVWGQGTTVTVSSTREQKLISEEDGSGTPFPSLAPPIMLLVDGKQQMVVVCLVLDVAPPGLDSPIWFSAGNGSALDAFTYGPSPATDGTWTNLAHLSLPSEELASWEPLVCHTGPGAEGHSRSTQPMHLSGEASTARTCPQEPLRGTPGGALWLGVLRLLLFKLLLFDLLLTCSCLCDPAGPLPSPATTTRLRALGSHRLHPATETGGREATSSPRPQPRDRRWGDTPPGRKPGSPVRAKRSGSGVKQTLNFDLLKLAGDVESNPGPSRGHMTEYKPTVRLATRDDVPRAVRTLAAAFADYPATRHTVDPDRHIERVTELQELFLTRVGLDIGKVWVADDGAAVAVWTTPESVEAGAVFAEIGPRMAELSGSRLAAQQQMEGLLAPHRPKEPAWFLATVGVSPDHQGKGLGSAVVLPGVEAAERAGVPAFLETSAPRNLPFYERLGFTVTADVEVPEGPRTWCMTRKPGA
# modifications: Polynucleotide encoding a Synthetic Immune Receptor (SIR)
# B3: 062717-P06 (protein)
# chain: MALPVTALLLPLALLLHAARPLEGKPIPNPLLGLDSTGSGEDLKNVFPPEVAVFEPSKAEIAHTQKATLVCLATGFYPDHVELSWWVNGKEVHSGVCTDPQPLKEQPALNDSRYCLSSRLRVSATFWQNPRNHFRCQVQFYGLSENDEWTQDRAKPVTQIVSAEAWGRADCGITSASYHQGVLSATILYEILLGKATLYAVLVSALVLMAMVKRKDSRGRAKRSGSGATNFSLLKQAGDVEENPGPTSMALPVTALLLPLALLLHAARPEVQLQQSGPGLVKPSQTLSLTCAISGDSVSSNSAAWNWIRQSPSRGLEWLGRTYYRSKWYSDYAVSVKSRITINPDTSKNQFSLQLNSVTPEDTAVYYCARDPYDFWSGYPDAFDIWGQGTMVTVSSGGGGSGGGGSGGGGSQSALTQPASVSGSPGQSITISCTGTSSDVGGYNYVSWYQQHPGKAPKVIISEVNNRPSGVSHRFSGSKSGNTASLTISGLQAEDEADYFCSSYTSGRTLYVFGTGSKVTVLGTREQKLISEEDGSGIQNPDPAVYQLRDSKSSDKSVCLFTDFDSQTNVSQSKDSDVYITDKCVLDMRSMDFKSNSAVAWSNKSDFACANAFNNSIIPEDTFFPSSDVPCDVKLVEKSFETDTNLNFQNLSVIGFRILLLKVAGFNLLMTLRLWSSRAKRSGSGVKQTLNFDLLKLAGDVESNPGPSRGHMTEYKPTVRLATRDDVPRAVRTLAAAFADYPATRHTVDPDRHIERVTELQELFLTRVGLDIGKVWVADDGAAVAVWTTPESVEAGAVFAEIGPRMAELSGSRLAAQQQMEGLLAPHRPKEPAWFLATVGVSPDHQGKGLGSAVVLPGVEAAERAGVPAFLETSAPRNLPFYERLGFTVTADVEVPEGPRTWCMTRKPGA
# B4: 083116-D03 (protein)
# chain: MALPVTALLLPLALLLHAARPLEGKPIPNPLLGLDSTGSGEDLKNVFPPEVAVFEPSKAEIAHTQKATLVCLATGFYPDHVELSWWVNGKEVHSGVCTDPQPLKEQPALNDSRYCLSSRLRVSATFWQNPRNHFRCQVQFYGLSENDEWTQDRAKPVTQIVSAEAWGRADCGITSASYHQGVLSATILYEILLGKATLYAVLVSALVLMAMVKRKDSRGRAKRSGSGATNFSLLKQAGDVEENPGPTSMALPVTALLLPLALLLHAARPDIQMTQSPATIENTSLSASVGDRVTITCRASQGISSWLTWYQQKPEKAPKSLIYAASSLQSGVPSRFSGSGSGTDFTLTISSLQPEDFATYYCQQYDSYPITFGQGTRLEIKGGGGSGGGGSGGGGSQVQLQQWGAGLLKPSETLSLTCAVYGGSFSAYYWSWIRQPPGKGLEWIGDINHGGGTNYNPSLKSRVTISVDTSKNQFSLKLNSVTAADTAVYYCASLTAYWGQGSLVTVSSTREQKLISEEDLGSGTPFPSLAPPIMLLVDGKQQMVVVCLVLDVAPPGLDSPIWFSAGNGSALDAFTYGPSPATDGTWTNLAHLSLPSEELASWEPLVCHTGPGAEGHSRSTQPMHLSGEASTARTCPQEPLRGTPGGALWLGVLRLLLFKLLLFDLLLTCSCLCDPAGPLPSPATTTRLRALGSHRLHPATETGGREATSSPRPQPRDRRWGDTPPGRKPGSPVRAKRSGSGVKQTLNFDLLKLAGDVESNPGPSRSRGHMTEYKPTVRLATRDDVPRAVRTLAAAFADYPATRHTVDPDRHIERVTELQELFLTRVGLDIGKVWVADDGAAVAVWTTPESVEAGAVFAEIGPRMAELSGSRLAAQQQMEGLLAPHRPKEPAWFLATVGVSPDHQGKGLGSAVVLPGVEAAERAGVPAFLETSAPRNLPFYERLGFTVTADVEVPEGPRTWCMTRKPGA
# modifications: Polynucleotide encoding a Synthetic Immune Receptor (SIR)
# B5: 062717-O02 (protein)
# chain: MALPVTALLLPLALLLHAARPLEGKPIPNPLLGLDSTGSGEDLKNVFPPEVAVFEPSKAEIAHTQKATLVCLATGFYPDHVELSWWVNGKEVHSGVCTDPQPLKEQPALNDSRYCLSSRLRVSATFWQNPRNHFRCQVQFYGLSENDEWTQDRAKPVTQIVSAEAWGRADCGITSASYHQGVLSATILYEILLGKATLYAVLVSALVLMAMVKRKDSRGRAKRSGSGATNFSLLKQAGDVEENPGPTSMALPVTALLLPLALLLHAARPEVQLQQSGPGLVKPSQTLSLTCAISGDSVLSNSDTWNWIRQSPSRGLEWLGRTYHRSTWYDDYASSVRGRVSINVDTSKNQYSLQLNAVTPEDTGVYYCARDRLQDGNSWSDAFDVWGQGTMVTVSSGGGGSGGGGSGGGGSQSALTQPASVSGSPGQSITISCTGTSSDVGGYNYVSWYQQHPGKAPKLMIYDVSNRPSGVSNRFSGSKSGNTASLTISGLQAEDEADYYCSSYTSSSTLVYVFGTGTKVTVLTREQKLISEEDGSGIQNPDPAVYQLRDSKSSDKSVCLFTDFDSQTNVSQSKDSDVYITDKCVLDMRSMDFKSNSAVAWSNKSDFACANAFNNSIIPEDTFFPSSDVPCDVKLVEKSFETDTNLNFQNLSVIGFRILLLKVAGFNLLMTLRLWSSRAKRSGSGVKQTLNFDLLKLAGDVESNPGPSRGHMTEYKPTVRLATRDDVPRAVRTLAAAFADYPATRHTVDPDRHIERVTELQELFLTRVGLDIGKVWVADDGAAVAVWTTPESVEAGAVFAEIGPRMAELSGSRLAAQQQMEGLLAPHRPKEPAWFLATVGVSPDHQGKGLGSAVVLPGVEAAERAGVPAFLETSAPRNLPFYERLGFTVTADVEVPEGPRTWCMTRKPGA
# System: target antigen-expressing cell line
# Assay: Jurkat NFAT-GFP assay, coculture with target cell lines expressing the respective target antigen (summary Table 10A)
# Format: cell-based, human
# Design: key: The signs +/−, +, 2+ etc. after the name of the cell lines indicate the relative degree of positivity on the Jurkat-NFAT-GFP assay as measured by the % GFP positive cells; +: relative degree of positivity on the Jurkat-NFAT-GFP assay as measured by the % GFP positive cells; 2+: relative degree of positivity on the Jurkat-NFAT-GFP assay as measured by the % GFP positive cells
# Conditions: relative % GFP positive cells; for NFAT-GFP ASSAY Positive Cell lines: RAJI: SIR-expressing Jurkat-NFAT-GFP cells cocultured with RAJI
# Summary of the method: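 Jurkat cells carrying an NFAT-driven GFP reporter and lentivirally expressing a SIR were cocultured with antigen-bearing target cells (E:T ~1:2) for about 4–18 h. GFP induction read by flow cytometry as % GFP+ cells, scored positive and graded (+/−, +, 2+) against parental Jurkat-NFAT-GFP cells.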
Molecule,NFAT-GFP ASSAY Positive Cell lines: RAJI,other results
B1,RAJI (+),–
B2,"RAJI (+/−), HL60",NFAT-GFP ASSAY Positive Cell lines: HL60 (SIR-expressing Jurkat-NFAT-GFP cells cocultured with HL60): +; NFAT-GFP ASSAY Positive Cell lines: KG1 (SIR-expressing Jurkat-NFAT-GFP cells cocultured with KG1): KG1 (+/−); NFAT-GFP ASSAY Positive Cell lines: THP1 (SIR-expressing Jurkat-NFAT-GFP cells cocultured with THP1): +/−
B3,RAJI (+/−),–
B4,–,NFAT-GFP ASSAY Positive Cell lines: L428 (SIR-expressing Jurkat-NFAT-GFP cells cocultured with L428): L428 (+/−)
B5,RAJI (+/−),–
